Patent US20110105394A1 (Novo Nordisk, published 2011)
*1 amine or outer side, *2 acyl side, *3 side chain or, on linkers, in order; H or OH if unused. Bridges are numbered along the chain shown (N, C = ends). The star is where a group is joined. C20 diacid = O=C(O)CCCCCCCCCCCCCCCCCCC(=O)*; γGlu = O=C(O)[C@H](CCC(=O)[*:2])N[*:1]

T1: Amylin 3(a) receptor (human calcitonin receptor (CTa) with RAMP-3) (human) (UniProt P30988)
T1 sequence (looked up) 1: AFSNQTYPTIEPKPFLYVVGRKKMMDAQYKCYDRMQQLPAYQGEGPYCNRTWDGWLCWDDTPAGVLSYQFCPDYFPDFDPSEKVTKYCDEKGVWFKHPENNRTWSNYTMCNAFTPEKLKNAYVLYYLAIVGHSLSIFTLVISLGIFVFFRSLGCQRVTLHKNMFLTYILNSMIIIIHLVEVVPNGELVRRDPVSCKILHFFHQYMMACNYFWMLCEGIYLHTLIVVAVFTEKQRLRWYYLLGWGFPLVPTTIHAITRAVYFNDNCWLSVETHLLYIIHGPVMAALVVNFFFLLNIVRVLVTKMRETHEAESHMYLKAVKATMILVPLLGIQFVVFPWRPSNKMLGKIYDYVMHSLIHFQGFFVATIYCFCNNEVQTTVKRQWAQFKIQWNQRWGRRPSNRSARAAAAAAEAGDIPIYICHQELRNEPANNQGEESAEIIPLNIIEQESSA
T1 sequence (looked up) 2: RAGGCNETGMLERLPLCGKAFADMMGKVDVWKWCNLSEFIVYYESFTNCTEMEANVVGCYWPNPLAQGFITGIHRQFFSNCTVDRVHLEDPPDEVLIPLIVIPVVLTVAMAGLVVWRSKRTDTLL

B1: N-alpha-[(S)-4-Carboxy-4-(19-carboxynonadecanoylamino)butyryl]-Glu-His-Arg-[His1,His17]-pramlintide (peptide)
peptide: {C20 diacid-γGlu}-EHRHCNTATCATQRLANFLHHSSNNFGPILPPTNVGSNTY-NH2
modifications: disulfide 5-10
SMILES: CC[C@H](C)[C@H](NC(=O)[C@@H]1CCCN1C(=O)CNC(=O)[C@H](Cc1ccccc1)NC(=O)[C@H](CC(N)=O)NC(=O)[C@H](CC(N)=O)NC(=O)[C@H](CO)NC(=O)[C@H](CO)NC(=O)[C@H](Cc1c[nH]cn1)NC(=O)[C@H](Cc1c[nH]cn1)NC(=O)[C@H](CC(C)C)NC(=O)[C@H](Cc1ccccc1)NC(=O)[C@H](CC(N)=O)NC(=O)[C@H](C)NC(=O)[C@H](CC(C)C)NC(=O)[C@H](CCCNC(=N)N)NC(=O)[C@H](CCC(N)=O)NC(=O)[C@@H](NC(=O)[C@H](C)NC(=O)[C@@H]1CSSC[C@H](NC(=O)[C@H](Cc2c[nH]cn2)NC(=O)[C@H](CCCNC(=N)N)NC(=O)[C@H](Cc2c[nH]cn2)NC(=O)[C@H](CCC(=O)O)NC(=O)CC[C@H](NC(=O)CCCCCCCCCCCCCCCCCCC(=O)O)C(=O)O)C(=O)N[C@@H](CC(N)=O)C(=O)N[C@@H]([C@@H](C)O)C(=O)N[C@@H](C)C(=O)N[C@@H]([C@@H](C)O)C(=O)N1)[C@@H](C)O)C(=O)N[C@@H](CC(C)C)C(=O)N1CCC[C@H]1C(=O)N1CCC[C@H]1C(=O)N[C@H](C(=O)N[C@@H](CC(N)=O)C(=O)N[C@H](C(=O)NCC(=O)N[C@@H](CO)C(=O)N[C@@H](CC(N)=O)C(=O)N[C@H](C(=O)N[C@@H](Cc1ccc(O)cc1)C(N)=O)[C@@H](C)O)C(C)C)[C@@H](C)O
B2: N-alpha-[(S)-4-Carboxy-4-(19-carboxynonadecanoylamino)butyryl]-Glu-His-His-[Arg1,His17]-pramlintide (peptide)
peptide: {C20 diacid-γGlu}-EHHRCNTATCATQRLANFLHHSSNNFGPILPPTNVGSNTY-NH2
modifications: disulfide 5-10
SMILES: CC[C@H](C)[C@H](NC(=O)[C@@H]1CCCN1C(=O)CNC(=O)[C@H](Cc1ccccc1)NC(=O)[C@H](CC(N)=O)NC(=O)[C@H](CC(N)=O)NC(=O)[C@H](CO)NC(=O)[C@H](CO)NC(=O)[C@H](Cc1c[nH]cn1)NC(=O)[C@H](Cc1c[nH]cn1)NC(=O)[C@H](CC(C)C)NC(=O)[C@H](Cc1ccccc1)NC(=O)[C@H](CC(N)=O)NC(=O)[C@H](C)NC(=O)[C@H](CC(C)C)NC(=O)[C@H](CCCNC(=N)N)NC(=O)[C@H](CCC(N)=O)NC(=O)[C@@H](NC(=O)[C@H](C)NC(=O)[C@@H]1CSSC[C@H](NC(=O)[C@H](CCCNC(=N)N)NC(=O)[C@H](Cc2c[nH]cn2)NC(=O)[C@H](Cc2c[nH]cn2)NC(=O)[C@H](CCC(=O)O)NC(=O)CC[C@H](NC(=O)CCCCCCCCCCCCCCCCCCC(=O)O)C(=O)O)C(=O)N[C@@H](CC(N)=O)C(=O)N[C@@H]([C@@H](C)O)C(=O)N[C@@H](C)C(=O)N[C@@H]([C@@H](C)O)C(=O)N1)[C@@H](C)O)C(=O)N[C@@H](CC(C)C)C(=O)N1CCC[C@H]1C(=O)N1CCC[C@H]1C(=O)N[C@H](C(=O)N[C@@H](CC(N)=O)C(=O)N[C@H](C(=O)NCC(=O)N[C@@H](CO)C(=O)N[C@@H](CC(N)=O)C(=O)N[C@H](C(=O)N[C@@H](Cc1ccc(O)cc1)C(N)=O)[C@@H](C)O)C(C)C)[C@@H](C)O
B3: N-alpha-[(S)-4-Carboxy-4-(19-carboxynonadecanoylamino)butyryl]-Glu-His-His-[Arg1,Arg17,Gln21]-pramlintide (peptide)
peptide: {C20 diacid-γGlu}-EHHRCNTATCATQRLANFLRHSSQNFGPILPPTNVGSNTY-NH2
modifications: disulfide 5-10
SMILES: CC[C@H](C)[C@H](NC(=O)[C@@H]1CCCN1C(=O)CNC(=O)[C@H](Cc1ccccc1)NC(=O)[C@H](CC(N)=O)NC(=O)[C@H](CCC(N)=O)NC(=O)[C@H](CO)NC(=O)[C@H](CO)NC(=O)[C@H](Cc1c[nH]cn1)NC(=O)[C@H](CCCNC(=N)N)NC(=O)[C@H](CC(C)C)NC(=O)[C@H](Cc1ccccc1)NC(=O)[C@H](CC(N)=O)NC(=O)[C@H](C)NC(=O)[C@H](CC(C)C)NC(=O)[C@H](CCCNC(=N)N)NC(=O)[C@H](CCC(N)=O)NC(=O)[C@@H](NC(=O)[C@H](C)NC(=O)[C@@H]1CSSC[C@H](NC(=O)[C@H](CCCNC(=N)N)NC(=O)[C@H](Cc2c[nH]cn2)NC(=O)[C@H](Cc2c[nH]cn2)NC(=O)[C@H](CCC(=O)O)NC(=O)CC[C@H](NC(=O)CCCCCCCCCCCCCCCCCCC(=O)O)C(=O)O)C(=O)N[C@@H](CC(N)=O)C(=O)N[C@@H]([C@@H](C)O)C(=O)N[C@@H](C)C(=O)N[C@@H]([C@@H](C)O)C(=O)N1)[C@@H](C)O)C(=O)N[C@@H](CC(C)C)C(=O)N1CCC[C@H]1C(=O)N1CCC[C@H]1C(=O)N[C@H](C(=O)N[C@@H](CC(N)=O)C(=O)N[C@H](C(=O)NCC(=O)N[C@@H](CO)C(=O)N[C@@H](CC(N)=O)C(=O)N[C@H](C(=O)N[C@@H](Cc1ccc(O)cc1)C(N)=O)[C@@H](C)O)C(C)C)[C@@H](C)O

Biological target: T1, Amylin 3(a) receptor (human calcitonin receptor (CTa) with RAMP-3) (human)
Test: cell-based or functional assay

Potency Luciferase, 0.1 nM:
B1, B2, B3
